Laboratory results taken from patent publication US11467166B2, “Compositions and methods for detecting molecule-molecule interactions” (ShanghaiTech University, priority 2017, dated 2022).

Assays:
His-MATH = biological target: T1, His-MATH (Homo sapiens, UniProt O43791); experiment: Peptide competition assay in the in vitro Pup modification of MATH by PUP-IT^pep1; format: biochemical; conditions: free peptide added at 1-512 μM; 0.2 μM His-MATH, 8 μM Pup(E); anti-His immunoblot
T1 construct: made in house; host or cells: E. coli BL21(DE3)
T1 sequence (O43791 31-161 limits assumed): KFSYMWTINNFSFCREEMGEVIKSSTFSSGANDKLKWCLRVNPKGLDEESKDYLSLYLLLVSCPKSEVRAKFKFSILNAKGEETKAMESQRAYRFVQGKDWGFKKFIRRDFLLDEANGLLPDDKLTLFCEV
Description: Pup modification were assayed at 37° C. for 30 min with purified recombinant proteins in a 20 μl reaction volume with 20 mM Tris 8.0, 100 mM NaCl, 10 mM ATP, and 15 mM MgCl2. The reaction also contains purified 1 μM PUP-IT, 10 μM Pup(E) or 10 mM bio-DE28. All the reactions were stopped by direct addition of 6×SDS loading buffer and analyzed on 4-20% SDS-PAGE gels (Genescript, cat. #M42015C).
Peptide competition assay (as in FIG. 2d) was performed in the presence of different peptides. Free pep1 (sequence […], SEQ ID NO: 12) and control peptide (sequence […], SEQ ID NO: 15) were synthesized and purified to >98% pure, confirmed by mass spectrometry. The peptides were dissolved in water and pH adjusted with Tris buffer to 7, stored as 2 mM stock in −80° C. The reactions were set up with 1 μM pup^SBC1, 0.2 μM His-MATH, and 8 μM Pup(E). Different amount of free pep1 or control peptide was added to each reaction to make the final peptide concentration at 1, 2, 4, 8, 16, 32, 64, 128, 256, and 512 μM. All the reactions were stopped by direct addition of 6×SDS loading buffer and analyzed on 4-20% SDS-PAGE gels, followed by immune-blotting with anti-His antibody to identify both unmodified and modified MATH. The density of modified MATH was quantified with ImageJ and then plotted with GraphPad Prism 6.

CD86/CD80 = conditions: CD28 interaction with CD86/CD80; reported; cited from earlier work
[1] = biological target: MATH domain from human SPOP (Homo sapiens, UniProt O43791); conditions: peptide binding to MATH domain from human SPOP; known values; read-out: dissociation constant (Kd); cited from earlier work
Chain of MATH domain from human SPOP (O43791 31-161 limits assumed): as above

In the case of “pep1(mut): mutated pep1 peptide LACDEDTAAASSSTA (SEQ ID NO: 15), known to have defect on MATH binding”, the “inhibition of MATH modification” value (His-MATH) is reported as “could not be fully inhibited”.

For “CD28: co-stimulating receptor normally expressed on the surface of T cells”, the Kd (CD86/CD80) is given as 4 µM.

In the case of “SPOP substrate-derived MATH-binding peptide LACDEVTSTTSSSTA (SEQ ID NO: 12) [pep1]”, the “inhibition of MATH modification” value (His-MATH) is listed as “dose-dependent inhibition of MATH modification” and the Kd [1] is listed as 3.7 µM.

In the case of “SPOP substrate-derived MATH-binding peptide SELDSPSSTSSSSGI (SEQ ID NO: 14), the weakest binder [pep3]”, the Kd [1] is listed as > 250 µM.

For “SPOP substrate-derived MATH-binding peptide TLFPDVSSSTHPYHG (SEQ ID NO: 13) [pep2]”, the Kd [1] is given as 76 µM.
